Assay results taken from publication PMC11189624 (2024).

Target: F-actin (rabbit skeletal actin) (Oryctolagus cuniculus (Rabbit), UniProt P68135)
Experiment: F-actin co-sedimentation (SDS-PAGE/CBB); actin in filamentous form; binding antagonized by Myo5a-MTD (mutually exclusive with exon-G)

B1: GST-Mlph-ABD (the GST-tagged ABD of Mlph, residues 401–590) (protein)
chain: SSEDETKPDGTFLGGSPKVCTDTGHMETQERNPRSPGNPARPTKSTDEELSEMEDRVAMTASEVQQAESEISDIESRIAALRAAGLTVKPSGKPRRKSGIPIFLPRVTEKLDRIPKTPPADPDDQAKMPKATTAVPSLLRRKYSPSSQGVDSGSFDRKSVYRGSLTQRNPNGRRGTARHIFAKPVMAQQP
B1: binds.
